Data published in patent publication US20040005688A1.

How the values were obtained:
[1] = target: Dvl3, mouse homolog of Dsh, C-terminally tagged, expressed from pcDNA3.1 in NIH3T3 cells (mouse) (UniProt Q61062); test: cell-based or functional assay
[2] = target: Dsh, C-terminally tagged, expressed from pcDNA3.1 in NIH3T3 cells (Drosophila) (UniProt P51140); test: cell-based or functional assay
Chain of Dsh, C-terminally tagged, expressed from pcDNA3.1 in NIH3T3 cells (Drosophila) (P51140 whole entry D276N): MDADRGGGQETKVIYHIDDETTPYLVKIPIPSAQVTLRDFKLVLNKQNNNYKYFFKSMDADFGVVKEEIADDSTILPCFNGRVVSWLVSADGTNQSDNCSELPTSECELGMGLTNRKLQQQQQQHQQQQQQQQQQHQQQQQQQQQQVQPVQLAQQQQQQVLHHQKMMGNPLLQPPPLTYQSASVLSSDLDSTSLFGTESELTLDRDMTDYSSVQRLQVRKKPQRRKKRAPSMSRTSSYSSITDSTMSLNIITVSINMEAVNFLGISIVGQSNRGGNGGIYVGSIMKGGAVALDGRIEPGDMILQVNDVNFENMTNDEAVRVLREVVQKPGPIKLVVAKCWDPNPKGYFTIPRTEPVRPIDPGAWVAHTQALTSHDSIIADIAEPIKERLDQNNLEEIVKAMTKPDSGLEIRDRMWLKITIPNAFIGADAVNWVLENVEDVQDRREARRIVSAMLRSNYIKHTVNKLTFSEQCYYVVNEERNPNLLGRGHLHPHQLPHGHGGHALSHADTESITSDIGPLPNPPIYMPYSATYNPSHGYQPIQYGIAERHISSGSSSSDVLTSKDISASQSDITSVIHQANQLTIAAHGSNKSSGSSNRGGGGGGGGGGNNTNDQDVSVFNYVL

Chain of Dvl3, mouse homolog of Dsh, C-terminally tagged, expressed from pcDNA3.1 in NIH3T3 cells (mouse) (Q61062 whole entry): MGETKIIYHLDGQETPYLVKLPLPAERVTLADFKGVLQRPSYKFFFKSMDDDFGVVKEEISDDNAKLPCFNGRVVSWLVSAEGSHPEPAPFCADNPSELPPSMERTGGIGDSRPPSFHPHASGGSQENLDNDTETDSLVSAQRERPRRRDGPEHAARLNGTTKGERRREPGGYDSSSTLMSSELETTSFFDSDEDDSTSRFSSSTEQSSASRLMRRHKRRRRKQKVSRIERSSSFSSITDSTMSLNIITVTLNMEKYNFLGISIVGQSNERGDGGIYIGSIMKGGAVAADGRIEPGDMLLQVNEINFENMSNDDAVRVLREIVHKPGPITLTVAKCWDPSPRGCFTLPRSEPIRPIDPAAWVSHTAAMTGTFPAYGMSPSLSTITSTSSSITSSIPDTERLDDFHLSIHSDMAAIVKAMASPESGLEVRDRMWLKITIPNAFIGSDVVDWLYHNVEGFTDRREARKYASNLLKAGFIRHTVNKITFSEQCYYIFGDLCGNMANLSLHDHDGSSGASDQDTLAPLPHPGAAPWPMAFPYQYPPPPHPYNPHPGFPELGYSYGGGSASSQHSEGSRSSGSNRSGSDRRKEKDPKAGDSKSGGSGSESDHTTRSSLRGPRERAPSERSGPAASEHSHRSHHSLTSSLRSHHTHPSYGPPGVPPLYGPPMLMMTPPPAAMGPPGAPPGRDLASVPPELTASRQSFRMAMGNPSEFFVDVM

activation of the LEF1 reporter (luciferase, NIH3T3 cells) [1]: 95 fold | activation of the LEF1 reporter (luciferase, NIH3T3 cells) [2]: 10 fold
Substance: DAKa, wild type, C-terminally tagged, expressed from pcDNA3.1 in NIH3T3 cells (enzyme)
